Measured values as given in patent US20230035798A1 (CAPELLA BIOSCIENCE, published 2023).
Substitutions are numbered along the chain they refer to. One block for each binder: values may come before it.

Key:
[1] = target: T1, human LIGHT (TNFSF14), full length, membrane-bound (214E allele) (human, UniProt O43557 1-240); assay: flow cytometry, mAb binding to EL4 cells stably expressing human LIGHT [lower panel]
T1 construct: also called membrane LIGHT; human membrane LIGHT

[2] = target: T1, human LIGHT (TNFSF14), full length, …; assay: flow cytometry, EL4-LIGHT cells, maximum signal compared with F19 and F23
Text: FIG. 7 depicts the flow cytometry analysis of the anti-membrane LIGHT mAbs (3B04 and 3D12) binding to LIGHT stably expressed on EL4 cells. The maximum signal of the IgG4 mAbs 3B04 and 3D12 binding to membrane LIGHT is approximately 40000 MFI. In contrast anti-LIGHT mAbs F19 and F23 (IgG4 mAbs from EP2292663) gave a maximal signal of approximately 120000 MFI. The ratio of binding of mAb F19 and mAb F23 is approximately 3 times that of the anti-membrane LIGHT mAbs 3B04 and 3D12. […] Other mAbs of this invention; 2E08, 3A07, 3C10, 3E09 and 2B11 also bind LIGHT in a 1:1 ratio when compared to mAbs F19 and F23 by flow cytometry.

[3] = target: T2, soluble LIGHT, amino acids 64-240 (Abcam ab82123) (UniProt O43557 64-240); assay: SPR (BIAcore), mAb captured on anti-human Fc, soluble LIGHT in flow
T2 construct: range 64-240; bought protein; also called 64-240 LIGHT; Soluble LIGHT 64-240
Procedure: (§1) Real-time binding interactions between captured antibody (chimeric anti-membrane LIGHT monoclonal antibody) captured on a biosensor matrix via goat anti-human Fe IgG and recombinant soluble LIGHT were measured by surface plasmon resonance (SPR) using the BIAcore system (GE Healthcare) according to manufacturer's instructions and standard procedures. Briefly, soluble LIGHT was diluted in HBS running buffer (GE Healthcare) and aliquots were injected through the immobilized protein matrices at a flow rate of […]. BIAevaluation software was used to calculate association rate (ka), dissociation rate (kd) and affinity (KD).
(§2) The specificity of two lead anti-membrane LIGHT mAbs to soluble LIGHT was determined by BIAcore analysis and compared to the KD calculated from the EC50 values in Table 7 (results in Table 9). In brief, mAbs 3D12, 3B04 were compared to a mAb that binds both soluble and membrane LIGHT, F19, (F19 IgG4 mAb from EP2292663). An irrelevant anti-HEL mAb, 2A11, was used as a negative control. The mAbs were captured on an anti-human Fc mAb coated chip and soluble LIGHT was passed over the surface and the kinetic parameters were calculated using BIAcore 3000 software. The soluble LIGHT preparations used were amino acids 74-240 LIGHT (R&D Systems, 664-LI-025) and 64-240 LIGHT (Abcam, ab82123).

[4] = target: T3, recombinant human soluble LIGHT, amino acids 74-240 (R&D Systems 664-LI-025) (human, UniProt O43557 74-240); assay: as above
T3 construct: range 74-240; also called 74-240 LIGHT; Soluble LIGHT 74-240
T3 chain: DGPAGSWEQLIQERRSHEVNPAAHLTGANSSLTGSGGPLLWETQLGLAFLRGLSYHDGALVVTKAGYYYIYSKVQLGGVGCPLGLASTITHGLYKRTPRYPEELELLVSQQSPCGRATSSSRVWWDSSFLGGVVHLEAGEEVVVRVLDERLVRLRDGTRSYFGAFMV
Procedure: as §1, §2

[5] = target: T1, human LIGHT (TNFSF14), full length, …; assay: KD calculated from EC50 on EL4-LIGHT cells, flow cytometry
[6] = target: T3, recombinant human soluble LIGHT, amino …; assay: native mass spectrometry, LIGHT:antibody 1:5
Procedure: The LIGHT protein (R&D Systems 664-LI-025) was solubilised in PBS buffer at a final concentration of 4 μM, whereas the mAbs were maintained at 20 μM in PBS. The samples were buffer exchanged into ammonium acetate pH 7.4 at different concentrations via a column with a cut-off of 40 kDa prior to mass spectrometry optimisation. […] Samples were stored at 4° C. and were used within one week. The antibodies were diluted to 1 μM prior to MSanalysis. For complex formation the LIGHT protein was incubated with each antibody separately in 1:5 ratio on ice and native mass measurements were performed 30 min after incubation.
Native mass spectroscopy was utilised to determine the ratio of mAb bound to native trimeric LIGHT. The measured mass of 3B04 (IgG4) was 147256±0.7 Da and the F19 anti-LIGHT mAb, (IgG4 mAb from EP2292663) was 147364±6.6 Da. Unlike the monoclonal antibodies the LIGHT protein was highly heterogeneous as expected, due to post-translational glycosylation. Two major populations of the light protein were recorded with measured masses of 68 kDa and 71 kDa. Both of these proteoforms are higher in mass than the theoretical trimeric mass of the protein, 62827.38 Da. […] In the case of LIGHT binding with 3B04, the stoichiometry can be assigned to one antibody per one LIGHT protein (masses of 219630±221 Da and 216960±380 were recorded).

[7] = target: T1, human LIGHT (TNFSF14), full length, …; assay: flow cytometry, mAb binding to EL4 cells stably expressing human LIGHT [upper panel]

B1: 3B04 (antibody, human IgG4, V domains shown)
VH: QVQLQQPGAELVRPGASVTLSCKASGYTFTDYEMHWVKQTPVHGLEWIGEIDPETGDTAYSQKFKGKATLTADKSSSTAYMEFRSLTSEDSAVYYCSRETDYFFDYWGQGTTLTVSS
VL: DIQMTQTPASLSASVGETVTITCGASENIYGALNWYQRKQGKSPQLLIYGATNLADGMSSRFSGSGSGRQYSLKISSLHPDDFATYYCQNVLTTPWTFGGGTKLEIKR
notes: chimeric: mouse variable domains on human IgG4 HC (S-to-P and L-to-E at 248) and human CL; also called Parental 3B04; 3B04 chimeric
EC50 (read off the curve) [1]: ~0.2 nM
binding ratio, mAb per LIGHT trimer [2]: 1 mAb per LIGHT trimer
Kd [3]: 13.8 nM
koff [3]: 0.00345 s⁻¹
kon [3]: 251000 M⁻¹ s⁻¹
Kd [4]: 15.7 nM
koff [4]: 0.00348 s⁻¹
kon [4]: 222000 M⁻¹ s⁻¹
Kd [5]: 0.15 nM
stoichiometry, antibodies per LIGHT trimer [6]: 1 antibodies per LIGHT trimer
EC50 (read off the curve) [7]: ~0.1 nM

EC50 (read off the curve) [1]: ~0.2 nM
binding ratio, mAb per LIGHT trimer [2]: 1 mAb per LIGHT trimer
Kd [3]: 10.7 nM
koff [3]: 0.00234 s⁻¹
kon [3]: 219000 M⁻¹ s⁻¹
Kd [4]: 14 nM
koff [4]: 0.00235 s⁻¹
kon [4]: 168000 M⁻¹ s⁻¹
Kd [5]: 0.2 nM
B2: 3D12 (antibody, human IgG4, V domains shown)
VH: B1 VH with G26D, Y32S, M34I, D57G, S61N, F83L
VL: B1 VL with T7S, F83V, T93S
notes: chimeric: mouse variable domains on human IgG4 HC (S-to-P and L-to-E at 248) and human CL; also called Parental 3D12; 3D12 chimeric
